{"source": "paper PMC10282093", "about": "“Structural basis of α1A-adrenergic receptor activation and recognition by an extracellular nanobody” (Nature Communications, 2023)", "key": {"[1]": {"target": "T1, purified α1AAR fused at the C-terminus to an enhanced green fluorescent protein (Homo sapiens, UniProt P35348, N7Q | N13Q | N22Q)", "T1 construct": "α1A-adrenergic receptor, human; Used in the on-yeast titration with or without 500 μM ligand (oxymetazoline, noradrenaline, tamsulosin, phentolamine); not shown: EGFP, C-terminal, kept", "assay": "flow cytometry on cells; on-yeast titration as a1, in the presence of 500 μM oxymetazoline", "conditions": "one partner purified"}, "[2]": {"target": "T1, purified α1AAR fused at the C-terminus …", "assay": "flow cytometry on cells; on-yeast titration as a1, in the presence of 500 μM noradrenaline", "conditions": "one partner purified"}, "α1AAR [3]": {"target": "T2, α1AAR (Homo sapiens, UniProt P35348)", "T2 sequence (P35348 1-370)": "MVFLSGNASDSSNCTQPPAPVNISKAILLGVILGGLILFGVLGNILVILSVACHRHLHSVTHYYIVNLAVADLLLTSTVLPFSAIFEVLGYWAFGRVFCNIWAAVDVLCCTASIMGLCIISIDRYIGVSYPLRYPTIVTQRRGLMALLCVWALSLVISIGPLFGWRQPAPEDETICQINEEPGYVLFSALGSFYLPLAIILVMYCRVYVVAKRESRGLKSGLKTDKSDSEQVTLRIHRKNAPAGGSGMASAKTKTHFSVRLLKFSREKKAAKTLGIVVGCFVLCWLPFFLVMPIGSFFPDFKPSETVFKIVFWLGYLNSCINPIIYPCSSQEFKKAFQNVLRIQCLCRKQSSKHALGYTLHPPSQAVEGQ", "assay": "[3H]prazosin radioligand binding, Sf9 membranes", "method": "After centrifugation, the pellet was homogenized in binding buffer and used as the membrane fraction in binding assays. […] Receptors were incubated for 1 h at room temperature with various concentrations of ligand in a total volume of 100 µl. After the reaction, the mixture was trapped on Whatman GF/B glass filters. Bound and free radioligands were separated by washing with ice-cold binding buffer. Radioactivity was measured on a MicroBeta2 liquid scintillation counter (PerkinElmer)."}, "α1AAR [4]": {"target": "T3, α1AAR (Homo sapiens, UniProt P35348)", "T3 sequence (P35348 1-466)": "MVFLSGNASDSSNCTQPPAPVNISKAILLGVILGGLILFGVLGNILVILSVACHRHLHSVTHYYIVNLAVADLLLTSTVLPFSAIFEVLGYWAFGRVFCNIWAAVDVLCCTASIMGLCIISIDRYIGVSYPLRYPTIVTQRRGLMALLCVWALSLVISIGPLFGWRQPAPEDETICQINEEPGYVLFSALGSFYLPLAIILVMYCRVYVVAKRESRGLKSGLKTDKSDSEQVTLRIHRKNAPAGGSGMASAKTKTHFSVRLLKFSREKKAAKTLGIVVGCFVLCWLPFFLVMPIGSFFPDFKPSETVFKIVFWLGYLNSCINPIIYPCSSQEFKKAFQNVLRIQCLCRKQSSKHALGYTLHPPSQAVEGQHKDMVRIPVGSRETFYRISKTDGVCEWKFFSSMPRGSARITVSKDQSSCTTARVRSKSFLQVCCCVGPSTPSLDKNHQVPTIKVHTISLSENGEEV", "assay": "Glo-sensor cAMP signaling assay with engineered Gsq protein in HEK293T cells", "method": "In brief, pGloSensor™−22F plasmid, receptor plasmid, and Gsq plasmid were transfected into HEK293T cells. At 24 h after transfection, the cells were switched into a CO2-Independent Medium (Gibco) and incubated with GloSensor^TM cAMP reagent. The mixture was then transferred to a 96-well white plate. The 96-well plate is placed at 37 °C in the dark for 1 h, then placed at room temperature in the dark for 1 h before use. […] The result curves were calculated and fitted by GraphPad Prism 9."}, "α1AAR [5]": {"target": "T3, α1AAR"}}, "note": "Values joined by “and” are separate entries in the source; they are usually repeats but may differ in a detail not shown here. Identical values can stand only once."}
{"molecule": "Nb29 displayed on yeast cells (VHH, Expression was detected with an anti-HA antibody; also called Nb29-expressing yeast cells) VHH: QVQLQESGGGLVQAGGSLRLSCAASGNISAHWKMGWYRQAPGKEREFVAGIGYANTNYADSVKGRFTISRDNAKNTVYLQMNSLKPEDTAVYYCAAYSYYRDHSYWGQGTQVTVSS", "values": [{"measurement": "Kd", "setting": "[1]", "value": 37.6, "unit": "nM"}, {"measurement": "Kd", "setting": "[2]", "value": 38.8, "unit": "nM"}]}
{"molecule": "Nb29: synthetic nanobody (single domain antibody) that binds the extracellular vestibule of α1AAR, preferentially oxymetazoline-bound (antibody, V domains shown) VH: QVQLQESGGGLVQAGGSLRLSCAASGNISAHWKMGWYRQAPGKEREFVAGIGYANTNYADSVKGRFTISRDNAKNTVYLQMNSLKPEDTAVYYCAAYSYYRDHSYWGQGTQVTVSS", "values": [{"measurement": "[3H]prazosin binding", "setting": "α1AAR [3]; Nb29 Log[M] -4", "value": "69.5661% and 61.694% and 66.6796%"}, {"measurement": "[3H]prazosin binding", "setting": "α1AAR [3]; Nb29 Log[M] -5", "value": "88.6049% and 105.399% and 83.0653%"}, {"measurement": "[3H]prazosin binding", "setting": "α1AAR [3]; Nb29 Log[M] -6", "value": "111.871% and 107.935%"}, {"measurement": "[3H]prazosin binding", "setting": "α1AAR [3]; Nb29 Log[M] -7", "value": "113.212% and 110.763% and 99.0136%"}, {"measurement": "[3H]prazosin binding", "setting": "α1AAR [3]; Nb29 Log[M] -8", "value": "94.5235% and 106.273% and 100.209%"}, {"measurement": "[3H]prazosin binding", "setting": "α1AAR [3]; Nb29 Log[M] -9", "value": "103.737% and 106.273%"}, {"measurement": "[3H]prazosin binding", "setting": "α1AAR [3]; Nb29 Log[M] -10", "value": "99.4509% and 97.7015% and 89.1005%"}, {"measurement": "pKi", "setting": "α1AAR [3]; Nb29 as competitor", "value": "4.39 ± 0.40"}, {"measurement": "agonist activity on its own", "setting": "α1AAR [4]", "value": "no agonist activity"}, {"measurement": "effect on maximum efficacy of α1AAR activation", "setting": "α1AAR [4]", "value": "slightly reduces"}, {"measurement": "α1AAR activation (Noradrenaline %)", "setting": "α1AAR [4]; Nb29 alone Log[M] -4", "value": "8.574% and 8.426% and 7.756%"}, {"measurement": "α1AAR activation (Noradrenaline %)", "setting": "α1AAR [4]; Nb29 alone Log[M] -5", "value": "10.7076% and 10.0868% and 10.3298%"}, {"measurement": "α1AAR activation (Noradrenaline %)", "setting": "α1AAR [4]; Nb29 alone Log[M] -6", "value": "8.0538% and 8.0467% and 7.523%"}, {"measurement": "α1AAR activation (Noradrenaline %)", "setting": "α1AAR [4]; Nb29 alone Log[M] -7", "value": "5.836% and 5.21% and 5.469%"}, {"measurement": "α1AAR activation (Noradrenaline %)", "setting": "α1AAR [4]; Nb29 alone Log[M] -8", "value": "4.832% and 4.868% and 5.077%"}, {"measurement": "α1AAR activation (Noradrenaline %)", "setting": "α1AAR [4]; Nb29 alone Log[M] -9", "value": "4.7489% and 4.768% and 4.504%"}, {"measurement": "α1AAR activation (Noradrenaline %)", "setting": "α1AAR [4]; Nb29 alone Log[M] -10", "value": "4.612% and 4.823% and 4.852%"}, {"measurement": "α1AAR activation (Noradrenaline %)", "setting": "α1AAR [4]; Nb29 alone Log[M] -11", "value": "4.776% and 4.958% and 4.729%"}, {"measurement": "Ki", "setting": "α1AAR [5]", "value": 4900, "unit": "nM"}]}
